# Where no end group is shown, it is not given here. [ ]: non-standard residue; d: D form. The star is where a group is joined. Biotin = O=C1N[C@H]2[C@H](CS[C@H]2CCCCC(=O)*)N1; Hyp = O=C(O)[C@@H]1C[C@@H](O)CN1
# Assays:
# [1] = biological target: T1, VHL-1 (Caenorhabditis elegans, UniProt Q19213); test: Peptide blocking of HIF-1 capture by HA.VHL-1 and capture of native VHL-1 by biotinylated peptides; type: binding, C. elegans; settings: for blocking of capture of pretreated HIF-1 by HA.VHL-1: peptide 1 μM
# T1 construct: made in house; host or cells: TNT rabbit reticulocyte lysate, IVTT
# T1 sequence (Q19213 1-174): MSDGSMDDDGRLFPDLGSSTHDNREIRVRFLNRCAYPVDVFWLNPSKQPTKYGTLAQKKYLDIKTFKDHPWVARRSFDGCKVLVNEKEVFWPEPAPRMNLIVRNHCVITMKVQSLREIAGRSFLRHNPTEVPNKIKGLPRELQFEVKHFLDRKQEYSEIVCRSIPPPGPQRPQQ
# Protocol: For peptide blocking experiments peptides (final conc. 1 μM) were pre-incubated with VHL-1 for 15 min before addition to the interaction.
# To test whether hydroxylation of the critical P621 residue in C. elegans HIF-1 could indeed promote binding to VHl-1, we synthesised N-terminal biotinylated peptides corresponding to residues 607-634 of C. elegans HIF-1 that contained either a proline (B28Pro) or a (2S, 4R)-trans-hydroxyproline residue (B28Hyp) at position 621.
# Furthermore. […] Finally, to test the importance of prolyl hydroxylation in regulating C. elegans HIF-1 in vivo we exposed worms to the cell-penetrating prolyl hydroxylase inhibitor, dimethyloxalylglycine.
# [2] = test system: HIF-α/pVHL interaction; test: Interaction of HIF-1α and pVHL.HA reticulocyte IVTTs, anti-HA co-immunoprecipitation; type: biochemical, human; settings: 100 μM added to the HIF-1α IVTT
# Protocol: ^35S-Methionine labelled […] subunits and pVHL.HA were produced separately by IVTT (in vitro transcription and translation) in reticulocyte lysates. IVTTs were performed under different conditions, mixed, and assayed for interaction by anti-HA co-immunoprecipitation. These in vitro assays allowed analysis of the HIFα/pVHL interaction using the recombinant proteins.
# Labelled HIF-1α and pVHL.HA were generated separately in reticulocyte lysates (IVTT), in the presence or absence of Co (II), desferrioxamine, or Fe(II). Lysates were mixed in various combinations, and interactions assayed by anti-HA immunoprecipitation.
# • 1. G. L. Semenza, Genes Dev 14, 1983-91. (2000). • 2. N. V. Iyer, et al., Genes Dev. 12, 149-162 (1997). • 3. E. Maltepe, J. V. Schmidt, D. Baunoch, C. A. Bradfield, M. C. Simon, Nature 386, 403-407 (1997). • 4. G. L. Wang, B.-H. Jiang, E. A. Rue, G. L. Semenza, Proc. Natl. Acad. Sci. USA 92, 5510-5514 (1995). • 5. S. Salceda, J. Caro, J. Biol. Chem. 272, 22642-22647 (1997). • 6. L. E. Huang, J. Gu, M. Schau, H. F. Bunn, Proc. Natl. Acad. Sci. USA 95, 7987-7992 (1998). • 7. M. S. Wiesener, et al., Blood 92, 2260-2268 (1998). • 8. P. H. Maxwell, et al., Nature 399, 271-275 (1999). • 9. K. Iwai, et al., Proc. Natl. Acad. Sci. USA 96, 12436-12441 (1999). • 10. J. Lisztwan, G. Imbert, C. Wirbelauer, M. Gstaiger, W. Krek, Genes Dev 13, 1822-33 (1999). • 11. M. E. Cockman, et al., J Biol Chem (2000). • 12. M. Ohh, et al., Nat Cell Biol 2, 423-7. (2000). • 13. T. Kamura, et al., Proc Natl Acad Sci USA 97, 10430-5. (2000). • 14. K. Tanimoto, Y. Makino, T. Pereira, L. Poellinger, Embo J 19, 4298-309. (2000). • 15. M. A. Goldberg, S. P. Dunning, H. F. Bunn, Science 242, 1412-1415 (1988). • 16. G. L. Wang, G. L. Semenza, Blood 82, 3610-3615 (1993). • 17. G. L. Semenza, Cell 98, 281-284 (1999). • 18. Hypoxia (<0.1% oxygen) was obtained in a workstation with O2, CO2 and temperature control (Ruskinn Technologies, Leeds, UK). For hypoxic harvest, buffers were preincubated in the chamber overnight. […]
# [3] = test system: EGLN-2 and EGLN-3; test: Modification and pVHL binding assay with reticulocyte lysate programmed with EGLN-2 or EGLN-3; type: biochemical, human; settings: desferrioxamine 200 μM, cobaltous chloride 200 μM
# Excerpt: Protein containing HIF-1 sequence (amino acids 549-582) was generated in a reticulocyte in vitro transcription translation reaction in the presence of 100 micromolar desferrioxamine, retrieved and then exposed to […] translates containing the putative enzymes as described above. These proteins contain the critical proline (564) which can be modified by hydroxylation and which enables recognition by von Hippel Lindau tumour suppressor protein (pVHL).
# The modification of the HIF-1 sequence was assayed by the binding of the HIF-1 to radiolabelled pVHL, generated by in vitro transcription and translation of a pcDNA3 vector containing the human wild type pVHL open reading frame in a rabbit reticulocyte lysate in the presence of ^35S-methionine.
# Modification and pVHL binding assays were performed as described above. Rabbit reticulocyte lysate was programmed with pcDNA3 based plasmids containing no insert, an insert encoding the full open reading frame of the human homologue of C. elegans Egl-9 known as EGLN-2, or an insert encoding the full open reading frame of the human homologue known as EGLN-3. Modification was performed in the absence of additives, in the presence of oxalylglycine, oxalylglycine plus 2-oxoglutarate, 200 μM desferrioxamine or 200 μM cobaltous chloride.
# [4] = test system: C. elegans; test: Immunoblot of ceHIF (HIF-1) in extracts of treated worms; type: in vivo; settings: 200 μM in liquid media, 6 or 16 hrs
# Protocol: Immunoblots of ceHIF levels in extracts of c. elegans were carried out to monitor regulation by hypoxia and iron chelation. Firstly, the oxygen dependence of protein induction was analysed. Worms were grown on plates in bell jars flushed with air (N), or with oxygen/balance nitrogen having an oxygen concentration of 5%, 1%, 0.5% or 0.1% for 18 hrs. A graded increase in protein level was seen as the oxygen level was reduced below 5% with the highest level of induction at 0.5 and 0.1% oxygen concentration. The time course of protein induction was then studied. Worms were grown in bell jars flushed with a 0.1% oxygen/balance nitrogen mixture for 0, 4, 8, 16 or 24 hrs before preparation of extracts. […] The time course of protein decay on re-oxygenation was then assessed. Worms were grown in bell jars flushed with air (N) or a 0.1% oxygen/balance nitrogen mixture. Extracts were made either immediately, or after 4 and 8 minutes of re-oxygenation. Decay of ceHIF protein was very rapid on re-oxygenation. […] A time course RNAse protection assay showing cehif mRNA levels in worms exposed to 0.1% oxygen/balance nitrogen for 0, 4, 8, 16 and 24 hrs was carried out. No induction of ceHIF mRNA by hypoxia was seen. […] Induction by iron chelation was also studied in C. elegans. […]
molecule,measurement,setting,value
"B28Hyp: N-terminal biotinylated peptide, residues 607-634 of C. elegans HIF-1, (2S, 4R)-trans-hydroxyproline at position 621 (Biotin-DDLQWEEPDLSCLA[Hyp]FVDTYDMMQMDEG)",blocking of capture of pretreated HIF-1 by HA.VHL-1,[1],blocked capture
same,capture of native VHL-1 from worm extracts,[1]; wild type but not vhl-1 mutant worms,captured immunodetectable native VHL-1
"B28Pro: N-terminal biotinylated peptide, residues 607-634 of C. elegans HIF-1, proline at position 621 (Biotin-DDLQWEEPDLSCLAPFVDTYDMMQMDEG)",blocking of capture of pretreated HIF-1 by HA.VHL-1,[1],not
CC(=O)N(O)CCCCCNC(=O)CCC(=O)N(O)CCCCCNC(=O)CCC(=O)N(O)CCCCCN [desferrioxamine],capture of HIF-1α by pVHL.HA,[2],greatly diminished capture
same,Enzyme activity (modification of HIF-1 to VHL binding form),[3],diminished
"c1ccc(-c2ccccn2)nc1 [2′, 2′ dipyrridyl, reference compound]",ceHIF protein level,[4],striking Induction of ceHIF
